One experiment addresses rat Y4 receptor (rat) (UniProt Q63447). The experiment can be described thus: 125I-PYY displacement, COS-7 membranes.
In experiment [1] the target is human Y4 receptor (human) (UniProt P0DQD5). Kind of experiment: 125I-PYY displacement, COS-7 membranes.
For experiment [2], the target named is human Y1 receptor (human) (UniProt P25929). Kind of experiment: 125I-PYY displacement, COS-7 membranes.
Experiment [3] concerns the target human Y2 receptor (human) (UniProt P49146). The experiment can be described thus: 125I-PYY displacement, COS-7 membranes.
Experiment [4] has as its target human Y4 receptor (human) (UniProt P0DQD5). Kind of experiment: 125I-PYY displacement, COS-7 membranes. This is another data set of the same source.
The target is the same in experiment [5]. Kind of experiment: cell-based or functional assay.
The target is the same in experiment [6]. Kind of experiment: 125I-PYY displacement, COS-7 membranes (as in Table 3).
In experiment [7] the target is Y2-like receptor population expressed by human SK-N-Be(2) neuroblastoma cells. Kind of experiment: 125I-PYY displacement, SK-N-Be(2) membranes.
Experiment [8] has the same target. Kind of experiment: ratio of Ki values, 125I-PYY displacement.
Experiment [9] deals with human Y4 receptor (human) (UniProt P0DQD5). Kind of experiment: 125I-PYY displacement, COS-7 membranes. The source holds these as a separate data set.
Experiment [10] concerns the target human Y1 receptor (human) (UniProt P25929). Kind of experiment: 125I-PYY displacement, COS-7 membranes. The source holds these as a separate data set.
The target of experiment [11] is human Y4 receptor (human) (UniProt P0DQD5). Kind of experiment: ratio of Ki values, 125I-PYY displacement.
Experiment [12] concerns the target human Y1 receptor (human) (UniProt P25929). Kind of experiment: ratio of Ki values, 125I-PYY displacement.

Like-named read-outs stand apart in the source and are kept apart here.

Sequence of human Y4 receptor (human) (P0DQD5 whole entry): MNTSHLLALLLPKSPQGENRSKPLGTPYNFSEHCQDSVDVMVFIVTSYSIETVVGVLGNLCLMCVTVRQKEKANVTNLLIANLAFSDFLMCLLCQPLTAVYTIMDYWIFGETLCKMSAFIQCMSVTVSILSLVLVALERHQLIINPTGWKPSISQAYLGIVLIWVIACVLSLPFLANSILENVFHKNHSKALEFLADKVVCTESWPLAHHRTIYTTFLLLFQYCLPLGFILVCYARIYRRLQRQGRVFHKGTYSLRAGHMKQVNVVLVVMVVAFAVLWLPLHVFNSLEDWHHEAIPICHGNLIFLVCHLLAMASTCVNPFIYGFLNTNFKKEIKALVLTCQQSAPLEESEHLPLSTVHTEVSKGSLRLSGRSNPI
Sequence of PP, salmon (peptide) (P69092 whole entry): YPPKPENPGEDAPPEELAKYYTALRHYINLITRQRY
Sequence of human Y1 receptor (human) (P25929 whole entry): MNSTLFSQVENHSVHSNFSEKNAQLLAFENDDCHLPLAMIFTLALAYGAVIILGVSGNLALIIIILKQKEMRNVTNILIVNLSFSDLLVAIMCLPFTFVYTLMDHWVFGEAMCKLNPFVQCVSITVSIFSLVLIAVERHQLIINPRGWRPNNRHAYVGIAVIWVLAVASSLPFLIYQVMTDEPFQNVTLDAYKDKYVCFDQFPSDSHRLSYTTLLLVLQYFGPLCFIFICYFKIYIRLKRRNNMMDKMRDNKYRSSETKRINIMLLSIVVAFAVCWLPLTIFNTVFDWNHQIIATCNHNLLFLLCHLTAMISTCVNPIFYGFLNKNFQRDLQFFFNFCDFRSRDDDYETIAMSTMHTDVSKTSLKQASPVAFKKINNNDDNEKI
Sequence of rat Y4 receptor (rat) (Q63447 whole entry R262P): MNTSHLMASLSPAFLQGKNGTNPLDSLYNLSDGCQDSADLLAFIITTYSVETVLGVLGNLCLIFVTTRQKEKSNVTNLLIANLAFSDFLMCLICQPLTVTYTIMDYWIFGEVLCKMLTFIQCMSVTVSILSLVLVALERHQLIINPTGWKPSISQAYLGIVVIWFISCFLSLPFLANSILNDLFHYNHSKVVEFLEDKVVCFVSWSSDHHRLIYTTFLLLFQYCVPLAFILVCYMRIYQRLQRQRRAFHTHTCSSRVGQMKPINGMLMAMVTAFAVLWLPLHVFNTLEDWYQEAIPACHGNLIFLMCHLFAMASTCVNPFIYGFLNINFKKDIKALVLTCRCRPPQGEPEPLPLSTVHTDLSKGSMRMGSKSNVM
Sequence of human Y2 receptor (human) (P49146 whole entry): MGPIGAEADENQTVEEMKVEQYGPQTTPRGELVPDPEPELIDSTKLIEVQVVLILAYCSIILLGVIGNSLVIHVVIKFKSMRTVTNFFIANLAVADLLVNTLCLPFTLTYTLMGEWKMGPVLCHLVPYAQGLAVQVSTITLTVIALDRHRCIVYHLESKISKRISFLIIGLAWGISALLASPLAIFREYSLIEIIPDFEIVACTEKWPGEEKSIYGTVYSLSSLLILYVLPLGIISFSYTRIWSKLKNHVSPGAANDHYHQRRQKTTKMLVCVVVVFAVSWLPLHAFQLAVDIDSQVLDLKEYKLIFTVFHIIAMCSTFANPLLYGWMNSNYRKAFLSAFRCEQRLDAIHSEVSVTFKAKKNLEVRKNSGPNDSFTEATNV

Regarding C2-NPY, porcine (peptide), the Ki (usually a dissociation constant, usually derived from enzyme kinetics or from competition with a known ligand) with rat Y4 receptor (rat) is 22 nM; in [1], 120 nM; in [2], 73 nM; in experiment [3], 3.5 nM.

Consider “PP31-36 free acid, human (from UniProt P01298 60-65) (peptide)”, for which the Ki in experiment [4] is > 10000 nM.

PP, avian (peptide): the Ki in [1] amounted to 7 nM; in experiment [2], 400 nM.

Regarding PP, frog (peptide), the Ki amounted to 62 nM in experiment [4], 0.19 nM with rat Y4 receptor (rat), 61 nM in experiment [1] and 98 nM in experiment [2].

On to PP, salmon (peptide), for which the Ki in the experiment with rat Y4 receptor (rat) amounted to 0.36 nM; in experiment [1], 3.2 nM; in experiment [2], 0.2 nM; in [6], 3.2 nM. This substance showed an EC50, inhibition of forskolin-stimulated cAMP accumulation, LM(tk-) cells in [5] of 110 nM.

The substance “human NPY free acid (from UniProt P01303 29-64) (peptide)” gave a Ki in experiment [7] of 280 nM.

Turning to “human peptide YY (from UniProt P10082 29-64)”, the Ki in [7] was determined as 0.11 nM. Further, the fold higher affinity than at hp25a in experiment [8] is 5 to 10 fold.

For the substance “porcine NPY2-36 (from UniProt P01304 11-45) (peptide)”, the Ki in [7] was determined as 0.41 nM; in experiment [9], 4.4 nM; in experiment [1], 5.6 nM; in [2], 2.4 nM.

In the case of “porcine NPY13-36 (from UniProt P01304 22-45) (peptide)”, the Ki in experiment [9] came to 39 nM; in experiment [10], 51 nM; with rat Y4 receptor (rat), 135 nM; in experiment [1], 38 nM; in [2], 70 nM; in [3], 2.5 nM.

“porcine NPY16-36 (from UniProt P01304 25-45) (peptide)”: the Ki in [7] was 5 nM; in experiment [10], 45 nM; in experiment [1], 54 nM; in experiment [2] it was 41 nM; in experiment [3] it was 3.6 nM.

For “porcine NPY18-36 (from UniProt P01304 27-45) (peptide)”, the Ki in experiment [7] was 2.1 nM; in [9] it was 63 nM; in [10], 28 nM; in experiment [2], 70 nM; in experiment [6], > 290 nM.

“porcine NPY20-36 (from UniProt P01304 29-45) (peptide)”: the Ki amounted to 3.1 nM in [7]; 100 nM in experiment [9]; 62 nM in [10]; 120 nM in [1]; 63 nM in experiment [2].

In the case of “porcine NPY22-36 (from UniProt P01304 31-45) (peptide)”, the Ki amounted to 3.2 nM in experiment [7], 140 nM in experiment [9], 170 nM in experiment [10] and 18 nM in experiment [3]. Further, the fold loss in affinity against full length porcine NPY in experiment [11] is 120 fold; in experiment [8], 11 fold; in [12], 3500 fold.

On to “porcine NPY26-36 (from UniProt P01304 35-45) (peptide)”, for which the Ki in experiment [7] is 70 nM; in [10] it was > 300 nM; in [3], 380 nM.

For the origin of these results see patent US6913892.
